Experimental data published in article PMC4575486, “GDF-5 can act as a context-dependent BMP-2 antagonist” (BMC Biology, 2015).
Like-named read-outs stand apart in the source and are kept apart here.

Key:
[1] = target: T1, extracellular domain of human BMPR-IA (human, UniProt P36894 24-152)
[2] = target: T1, extracellular domain of human BMPR-IA; assay: SPR; quality control of the recombinant ligands, as previously described (ref. 17)
[3] = target: T1, extracellular domain of human BMPR-IA; assay: cell-based or functional assay

T1 sequence (P36894 24-152): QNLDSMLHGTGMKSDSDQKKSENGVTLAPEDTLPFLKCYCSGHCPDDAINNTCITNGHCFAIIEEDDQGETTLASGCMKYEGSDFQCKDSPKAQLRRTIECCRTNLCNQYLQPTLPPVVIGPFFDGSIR

Row | inhibition of ALP expression induced by 20 nM BMP-2 in C2C12 cells by increasing concentrations of GDF-5 R57A, IC50 [1] | Kd [2] | SMAD-1 phosphorylation in ATDC5 and C2C12 cells; concentration needed for phospho-SMAD levels comparable to BMP-2 [3] | bone formation in the rat orthotopic (calvaria) model; amount of protein needed for the same ossified surface area as BMP-2 or GDF-5 R57A [3] | inhibition of ALP expression induced by 20 nM BMP-2 in C2C12 cells by increasing concentrations of wild-type GDF-5, IC50 [3] | Kd ([2]; both partners purified) | Molecule
1 | 5 nM | 1.6 nM | – | – | – | – | GDF-5 R57A (growth and differentiation factor 5, variant R57A) (ligand)
2 | – | – | ~10 fold | ~20 fold | 70 nM | 20 nM | human GDF-5 (growth and differentiation factor 5), wild type (ligand, UniProt P43026 382-501, looked up, human growth and differentiation factor 5, recombinant from E. coli; Homodimer; also called wild-type GDF-5; GDF-5WT; source: E. coli, purified (as previously described)) APLATRQGKRPSKNLKARCSRKALHVNFKDMGWDDWIIAPLEYEAFHCEGLCEFPLRSHLEPTNHAVIQTLMNSMDPESTPPTCCVPTRLSPISILFIDSANNVVYKQYEDMVVESCGCR
